Results from patent US20220411514A1, “ANTI-GAL3 ANTIBODIES AND METHODS OF USE FOR INSULIN RESISTANCE” (TrueBinding, Inc., priority 2021, published 2022).

Columns and labels:
Format in all cases: binding
Conditions in all cases: Example 14
[1] = target: His-EK-cynoGal3; test: Affinity kinetics to cynomolgus Gal3 (Biacore T200)
Experimental: In each cycle, duplicates were made by loading the same antibody to flow cells FC2 and FC4, and then analyte was flowed to all 4 flow cells. The detection was done pairwise, FC2-FC1 and FC4-FC3, to subtract non-specific binding of analyte to the surface. A cycle of 0 nM analyte was run prior to a dilution series of analyte. The 0 nM raw data were subtracted from each non-zero concentration data to minimize machine drifts. The data were analyzed by Biacore Evaluation software version 2.0. The binding affinities were characterized by fitting the kinetic sensograms to a monovalent binding model (1:1 binding).
(§1) The affinity of Gal3 binding to antibody was determined by acquiring real time Ligand:Analyte binding kinetics data and fitting the data with a 1:1 monovalent binding model. The kinetic evaluation procedure determines association and dissociation constants by fitting the experimental data to a 1:1 interaction model between analyte A and ligand B:
(§2) The affinity KD is the result of Kd divided by Ka.
(§3) The protocol disclosed in Example 9 was generally followed.

[2] = target: T1, His-EK-ratGal3 (Rattus norvegicus, UniProt P08699); test: Affinity kinetics to rat Gal3 (Biacore T200)
T1 sequence (P08699 1-262): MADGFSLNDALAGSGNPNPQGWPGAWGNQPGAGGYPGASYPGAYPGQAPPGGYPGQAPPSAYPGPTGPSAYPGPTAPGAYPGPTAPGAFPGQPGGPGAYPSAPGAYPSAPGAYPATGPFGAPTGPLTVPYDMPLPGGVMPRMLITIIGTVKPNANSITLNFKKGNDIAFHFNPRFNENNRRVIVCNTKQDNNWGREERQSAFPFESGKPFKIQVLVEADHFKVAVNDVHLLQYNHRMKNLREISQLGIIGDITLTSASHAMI
Experimental: In each sample cycle, duplicates of the same antibody in HBS-EP+ with 0.5 mg/mL BSA at 10 μg/mL were captured to FC2 and FC4 by flowing at 10.0 μL/min for 120 seconds, and then diluted His-EK-ratGal3 in HBS-EP+ with 0.5 mg/mL BSA was injected to all 4 flow cells at 30.0 μL/min for 180 seconds, followed by dissociation for 240 seconds. A dilution series of His-EK-ratGal3 started from 300 nM, and was 1:3 diluted for 6 points. FC1 and FC3 were used as reference flow cells, and their sensograms were subtracted from FC2 and FC4 respectively to reduce non-specific binding background. Also, an additional sample cycle at 0 nM analyte was run, and its sensogram was subtracted from those of non-zero nM cycles to address machine drifts and bulk shifts. The data were analyzed by Biacore Evaluation software version 2.0. The binding affinities were characterized by fitting the kinetic sensograms to a monovalent binding model (1:1 binding).
as §1, §2, §3

[3] = target: T2, human Gal3 (Homo sapiens, UniProt P17931); test: Affinity kinetics to human Gal3 (Carterra LSA)
T2 construct: 6xHis (linker-spaced) (C); purchased AcroBio (Acro Biosystems) GA3-H5129
T2 sequence (P17931 whole entry): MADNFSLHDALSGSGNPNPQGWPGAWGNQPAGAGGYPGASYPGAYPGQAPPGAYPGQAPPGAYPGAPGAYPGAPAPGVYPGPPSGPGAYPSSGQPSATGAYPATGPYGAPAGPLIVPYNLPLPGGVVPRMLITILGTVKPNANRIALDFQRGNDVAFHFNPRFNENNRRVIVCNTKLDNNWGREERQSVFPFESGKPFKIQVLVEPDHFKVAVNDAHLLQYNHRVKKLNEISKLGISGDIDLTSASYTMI
Experimental: (§4) Kinetics experiments were performed on a Carterra LSA at 25° C.
(§5) Then, a dilution series of Gal3 (2, 4, 8, 16, 32, 64, and 128 nM) in HBSTE with 0.5 mg/mL BSA was injected to the whole array for 300 seconds to allow association followed by dissociation for 240 seconds. The kinetics constants were calculated by the software NextGenKIT.
as §1, §2, §3

[4] = target: mouse Gal3 (Mus musculus, UniProt P16110); test: Affinity kinetics to mouse Gal3 (Carterra LSA)
Sequence of mouse Gal3 (P16110 whole entry): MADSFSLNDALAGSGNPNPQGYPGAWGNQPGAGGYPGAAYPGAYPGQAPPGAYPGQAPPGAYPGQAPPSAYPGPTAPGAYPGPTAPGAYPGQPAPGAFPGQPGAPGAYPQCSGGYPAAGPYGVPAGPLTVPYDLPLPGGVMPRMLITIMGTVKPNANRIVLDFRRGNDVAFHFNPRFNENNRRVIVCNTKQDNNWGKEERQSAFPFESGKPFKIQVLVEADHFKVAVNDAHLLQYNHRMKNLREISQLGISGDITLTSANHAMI
Experimental: as §4, §5, §1, §2, §3

## Synagis: negative control antibody, hIgG4 backbone [reference compound]
[1]
  affinity to His-EK-cynoGal3: did not bind
[2]
  average affinity to His-EK-ratGal3: did not bind
[3]
  average affinity to human Gal3: did not bind
[4]
  average affinity to mouse Gal3: did not show any binding activity
